From paper PMC5543122, “Structural basis of Notch O-glucosylation and O–xylosylation by mammalian protein–O-glucosyltransferase 1 (POGLUT1)” (Nature Communications, 2017)

Experiments:
[1] = molecular target: Drosophila Rumi, residues 39-406 (Drosophila) (UniProt Q8T045)
[2] = molecular target: human Protein O-glucosyltransferase 1 (POGLUT1), residues 29-385 (human) (UniProt Q8NBL1)
Chain of UniProt Q8NBL1 (Q8NBL1 29-385): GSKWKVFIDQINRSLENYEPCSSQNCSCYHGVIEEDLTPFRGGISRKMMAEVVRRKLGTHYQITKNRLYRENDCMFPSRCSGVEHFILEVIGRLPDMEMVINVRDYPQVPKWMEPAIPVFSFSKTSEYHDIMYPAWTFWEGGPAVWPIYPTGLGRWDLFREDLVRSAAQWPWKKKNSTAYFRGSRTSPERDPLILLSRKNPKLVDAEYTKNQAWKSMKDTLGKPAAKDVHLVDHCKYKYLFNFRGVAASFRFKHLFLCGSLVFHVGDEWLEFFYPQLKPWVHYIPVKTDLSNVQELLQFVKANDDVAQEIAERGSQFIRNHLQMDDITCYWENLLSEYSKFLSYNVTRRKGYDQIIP

Chain of UniProt Q8T045 (Q8T045 39-406): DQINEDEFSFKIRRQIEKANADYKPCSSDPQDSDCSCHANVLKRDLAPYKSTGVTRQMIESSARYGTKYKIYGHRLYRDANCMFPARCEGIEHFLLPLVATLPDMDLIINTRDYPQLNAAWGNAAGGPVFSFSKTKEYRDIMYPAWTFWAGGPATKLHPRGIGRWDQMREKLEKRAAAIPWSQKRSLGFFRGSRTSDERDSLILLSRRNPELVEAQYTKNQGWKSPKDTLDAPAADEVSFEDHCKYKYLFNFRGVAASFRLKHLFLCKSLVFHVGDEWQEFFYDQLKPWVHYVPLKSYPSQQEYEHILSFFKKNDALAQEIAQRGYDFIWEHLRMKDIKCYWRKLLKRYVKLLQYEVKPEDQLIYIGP

K M of the EGF-like domain (MBP fusion) for glucosylation, 2.5 mM UDP-glucose, coupled spectrophotometric assay, 37 °C [1] [µM] | K M of the EGF-like domain (MBP fusion) for glucosylation, 2.5 mM UDP-glucose, coupled spectrophotometric assay, 37 °C [2] [µM] | Substance
1000 | 1000 | human Notch1 EGF-like domain 12 with a 6-residue C2C3 loop, MBP fusion (from UniProt P46531 452-488) (domain or fragment)
1000 | 1000 | human Notch1 EGF-like domain 12 with a 7-residue C2C3 loop, MBP fusion (from UniProt P46531 452-488) (domain or fragment)
160 | 155 | human Notch1 EGF-like domain 12 with a 4-residue C2C3 loop, MBP fusion (from UniProt P46531 452-488) (domain or fragment)
